Data on 24 molecules can be found in patent publication US20250282874A1 (SUZHOU TRANSCENTA THERAPEUTICS, published 2025).

B1: IgG-scFv-ACZ885-AM4B6 (bispecific antibody)
heavy: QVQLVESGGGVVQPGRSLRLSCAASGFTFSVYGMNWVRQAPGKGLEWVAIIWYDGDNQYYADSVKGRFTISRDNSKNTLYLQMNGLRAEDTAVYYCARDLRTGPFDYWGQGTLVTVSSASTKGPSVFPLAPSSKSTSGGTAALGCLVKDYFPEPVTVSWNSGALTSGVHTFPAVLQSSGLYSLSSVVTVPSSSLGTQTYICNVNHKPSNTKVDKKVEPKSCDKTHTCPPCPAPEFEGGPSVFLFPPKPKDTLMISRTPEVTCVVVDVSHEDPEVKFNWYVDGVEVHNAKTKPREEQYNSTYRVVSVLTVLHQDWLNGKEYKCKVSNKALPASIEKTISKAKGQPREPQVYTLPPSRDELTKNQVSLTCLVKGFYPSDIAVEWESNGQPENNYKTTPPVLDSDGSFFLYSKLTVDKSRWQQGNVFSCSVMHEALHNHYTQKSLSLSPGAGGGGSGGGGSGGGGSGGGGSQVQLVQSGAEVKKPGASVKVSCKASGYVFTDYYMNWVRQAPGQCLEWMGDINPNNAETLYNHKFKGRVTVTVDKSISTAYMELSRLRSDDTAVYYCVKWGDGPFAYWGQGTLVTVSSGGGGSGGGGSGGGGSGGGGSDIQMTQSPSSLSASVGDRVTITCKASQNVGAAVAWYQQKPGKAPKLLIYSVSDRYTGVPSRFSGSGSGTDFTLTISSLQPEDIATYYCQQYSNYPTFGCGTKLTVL
light: EIVLTQSPDFQSVTPKEKVTITCRASQSIGSSLHWYQQKPDQSPKLLIKYASQSFSGVPSRFSGSGSGTDFTLTINSLEAEDAAAYYCHQSSSLPFTFGPGTKVDIKRTVAAPSVFIFPPSDEQLKSGTASVVCLLNNFYPREAKVQWKVDNALQSGNSQESVTEQDSKDSTYSLSSTLTLSKADYEKHKVYACEVTHQGLSSPVTKSFNRGEC
notes: Anti-IL-1β IgG (Canakinumab) with the AM4B6 scFv on the C-terminus of the heavy chain
B2: Hu4B6_HgLa (antibody, V domains shown)
VH: QVQLVQSGAEVKKPGASVKVSCKASGYVFTDYYMNWVRQAPGQSLEWMGDINPNNAGTSYNHKFKGRVTVTVDKSISTAYMELSRLRSDDTAVYYCVKWGDGPFAYWGQGTLVTVSS
VL: DIQMTQSPSSLSASVGDRVTITCKASQNVGAAVAWYQQKPGKAPKLLIYSASNRYTGVPSRFSGSGSGTDFTLTISSLQPEDIATYYCQQYSNYPTFGQGTKLEIK
notes: Hu4B6_Hd with G55A, paired with Hu4B6_La
B3: Hu4B6_HdLa (antibody, human IgG1, V domains shown)
VH: B2 VH with A56G
VL: B2 VL
B4: 4B6 scFv variant L-CDR2-1 (scFv)
scFv: DIQMTQSPSSLSASVGDRVTITCKASQNVGAAVAWYQQKPGKAPKLLIYSNSHRYTGVPSRFSGSGSGTDFTLTISSLQPEDIATYYCQQYSNYPTFGQGTKLEIKGGGGSGGGGSGGGGSQVQLVQSGAEVKKPGASVKVSCKASGYVFTDYYMNWVRQAPGQSLEWMGDINPNNAGTSYNHKFKGRVTVTVDKSISTAYMELSRLRSDDTAVYYCVKWGDGPFAYWGQGTLVTVSS
notes: also called 4B6-L-CDR2-1
B5: 4B6 scFv variant L-CDR2-3 (scFv)
scFv: B4 scFv with N51V, H53D
notes: also called 4B6-L-CDR2-3
B6: 4B6 scFv variant L-CDR2-2 (scFv)
scFv: B4 scFv with N51R, H53V
notes: also called 4B6-L-CDR2-2
B7: 4B6-HgLa scFv (wild-type sequence for affinity maturation) (scFv)
scFv: B4 scFv with N51A, H53N
notes: written VL-linker-VH; also called L-CDR1-WT; L-CDR2-WT
B8: 4B6 scFv variant L-CDR1-2 (scFv)
scFv: B4 scFv with G30P, N51A, H53N
notes: also called 4B6-L-CDR1-2
B9: 4B6 scFv variant L-CDR1-1 (scFv)
scFv: B4 scFv with A32I, N51A, H53N
notes: also called 4B6-L-CDR1-1
B10: 4B6 scFv variant L-CDR1-3 (scFv)
scFv: B4 scFv with G30K, A31G, N51A, H53N
notes: also called 4B6-L-CDR1-3
B11: 4B6 scFv variant H-CDR2-5 (scFv)
scFv: B4 scFv with N51A, H53N, G178Q, S180V
notes: also called 4B6-H-CDR2-5
B12: 4B6 scFv variant H-CDR2-3 (scFv)
scFv: B4 scFv with N51A, H53N, G178E, S180L
notes: also called 4B6-H-CDR2-3
B13: 4B6 scFv variant H-CDR2-2 (scFv)
scFv: B4 scFv with N51A, H53N, G178Q, S180Q
notes: also called 4B6-H-CDR2-2
B14: 4B6 scFv variant H-CDR2-1 (scFv)
scFv: B4 scFv with N51A, H53N, G178D, S180M
notes: also called 4B6-H-CDR2-1
B15: 4B6 scFv variant H-CDR2-4 (scFv)
scFv: B4 scFv with N51A, H53N, A177G, G178L
notes: also called 4B6-H-CDR2-4
B16: ACZ885 (antibody, V domains shown)
VH: QVQLVESGGGVVQPGRSLRLSCAASGFTFSVYGMNWVRQAPGKGLEWVAIIWYDGDNQYYADSVKGRFTISRDNSKNTLYLQMNGLRAEDTAVYYCARDLRTGPFDYWGQGTLVTVSS
VL: EIVLTQSPDFQSVTPKEKVTITCRASQSIGSSLHWYQQKPDQSPKLLIKYASQSFSGVPSRFSGSGSGTDFTLTINSLEAEDAAAYYCHQSSSLPFTFGPGTKVDIK
notes: Monoclonal anti-IL-1β antibody; also called Canakinumab
B17: Chimeri 4B6 (antibody, V domains shown)
VH: EVQLQQSGPELVKPGASVKISCKASGYVFTDYYMNWVKQSHGKSLEWIGDINPNNGGTSYNHKFKGKATVTVDKSSRTAYMELLSLTSEDSAVYYCVKWGDGPFAYWGQGTLVTVSA
VL: DIVMTQSQKFMSTSVGDRVSITCKASQNVGAAVAWYQQKPGQSPKLLIYSASNRYTGVPDRFTGSGSGTDFTLTISNMQSEDLADYFCQQYSNYPTFGSGTKLGIK
notes: spelling as printed; also called chimeric 4B6; mouse/chimeric antibody 4B6
B18: Hu4B6_HbLa (antibody, human IgG1, V domains shown)
VH: B2 VH with V28T, S44G, A56G, K74T
VL: B2 VL
B19: Hu4B6_HbLb (antibody, human IgG1, V domains shown)
VH: B2 VH with V28T, S44G, A56G, K74T
VL: B2 VL with A43S, S60D
B20: Hu4B6_HaLa (antibody, human IgG1, V domains shown)
VH: B2 VH with V28T, S44G, A56G, K74T, V97A, K98R
VL: B2 VL
B21: Hu4B6_HcLb (antibody, human IgG1, V domains shown)
VH: B2 VH with S44G, A56G, V97A, K98R
VL: B2 VL with A43S, S60D
B22: Hu4B6_HaLb (antibody, human IgG1, V domains shown)
VH: B2 VH with V28T, S44G, A56G, K74T, V97A, K98R
VL: B2 VL with A43S, S60D
B23: Hu4B6_HdLb (antibody, human IgG1, V domains shown)
VH: B2 VH with A56G
VL: B2 VL with A43S, S60D
B24: Hu4B6_HcLa (antibody, human IgG1, V domains shown)
VH: B2 VH with S44G, A56G, V97A, K98R
VL: B2 VL

Numbering of substitutions follows the chain as printed. Numbers in names are those of the source.

The first test addresses T1, human PD-L1 expressed on cells (human, UniProt Q9NZQ7 19-290).
T1 construct: whole, on cells; also called MC38/hPD-L1
Briefly: flow cytometry on 293T-PD-L1-CD3L cells, Mean FITC-A as printed.
For the molecule B1, the EC50 was 1.51 nM.

A further test addresses T2, hPD-L1 (Acro Biosystems, PD1-H5229) (human, UniProt Q9NZQ7 19-238).
T2 construct: also called human PD-L1; hPD-L1 protein
Briefly: ELISA, hPD-L1 coated, anti-human Fc-HRP, OD450. In general terms: ELISA stands for enzyme-linked immunosorbent assay.
For B1, it took 0.0363 nM to reach a half-maximal effect (EC50).

The next test concerns the target T3, human PD-L1-His (human, UniProt Q9NZQ7 19-238, limits assumed).
T3 construct: not shown: His tag
Briefly: ELISA, human PD-L1 coated, OD450.
As to B2, the EC50 was 0.407 nM.
B3: a half-maximal effect (EC50) was put at 0.347 nM.

A further test concerns the target T4, human PD-L1-Fc (human, UniProt Q9NZQ7 19-239).
T4 construct: also called hPD-L1-Fc; human PD-L1-Fc (Sino Biological, 70110-D02H); not shown: Fc part
Briefly: BLI; against L-CDR2-WT.
In turn, B4 had a Fold increase of 3.42 fold.
Take B5: the Fold increase stood at 6.32 fold.
Same read-out and setting: the figure for B6 is 8.26 fold.

The next test deals with T4, human PD-L1-Fc. Description: BLI; PD-L1-Fc loaded on the sensor, scFv in solution. (In BLI a coated tip is dipped into the sample, and binding shifts an interference pattern.)
For B7, binding was put at a Kd of 28.2 nM and the kon is 35800 M⁻¹ s⁻¹.
With B8, binding was put at a Kd of 5.68 nM and the kon stood at 271000 M⁻¹ s⁻¹.
Consider B9, for which the Kd came to 6.91 nM and the kon turned out to be 41200 M⁻¹ s⁻¹.
B10 displayed a Kd of 2.78 nM and a kon of 91100 M⁻¹ s⁻¹.

A further test concerns the target T4, human PD-L1-Fc. The test is described as above. The source holds these as a separate data set.
B7 came in with a Kd of 26.7 nM and a kon of 46300 M⁻¹ s⁻¹.
Turning to B11, the affinity, expressed as Kd, was 2.4 nM and the kon came to 102000 M⁻¹ s⁻¹.
Molecule B12 returned a Kd of 2.43 nM and a kon of 116000 M⁻¹ s⁻¹.
Molecule B13 returned a Kd of 2.42 nM and a kon of 101000 M⁻¹ s⁻¹.
On the same counts, the results for B14 are 3.52 nM and 141000 M⁻¹ s⁻¹.
B15 showed an equilibrium dissociation constant (Kd) of 4.43 nM and a kon of 117000 M⁻¹ s⁻¹.

Another test deals with T4, human PD-L1-Fc. Description: BLI; against L-CDR1-WT.
The molecule B8 returned a Fold increase of 4.96 fold.
With B9, the Fold increase came out at 4.08 fold.
Same read-out and setting: the figure for B10 is 10.1 fold.

The target in the next test is T4, human PD-L1-Fc. Briefly: BLI; PD-L1-Fc loaded on the sensor, scFv in solution. This is another data set of the same source.
With B7, binding was characterised by a dissociation constant (Kd) of 27.6 nM and the kon was determined as 38100 M⁻¹ s⁻¹.
On the same counts, the results for B4 are 8.06 nM and 46800 M⁻¹ s⁻¹.
Consider B5, for which the dissociation constant (Kd) worked out at 4.37 nM and the on-rate constant (kon) stood at 124000 M⁻¹ s⁻¹.
The corresponding values for B6 are 3.34 nM and 162000 M⁻¹ s⁻¹.

The next test has as its target T5, Human IL-1β protein (Sino Biological, Cat #10139) (human, UniProt P01584 117-269). Briefly: cell-based or functional assay.
Take B1: the “IC50, SEAP at OD620, HEK293-CD40L reporter cells stimulated with human IL-1β” value stood at 0.346 nM.
On the same count and under the same terms, the figure for B16 is 0.294 nM.

In the next test the target is T5, Human IL-1β protein (Sino Biological, …). Briefly: ELISA, hIL-1β protein coated, anti-human Fc-HRP, OD450.
In the case of B1, the EC50 stood at 0.0182 nM. In other words, the picomolar range.
Same read-out and setting: the figure for B16 is 0.0113 nM.

The target in the next test is T1, human PD-L1 expressed on cells. Description: cell-based or functional assay.
Take B1: the “IC50 (so in the source), luminescence (axis printed OD450), 293T-PD-L1-CD3L cells with Jurkat-NFAT-Luc-PD1 cells” value is approximately 1.29 nM.

A further test deals with T3, human PD-L1-His. Description: ELISA, human PD-L1-His coated, anti-human IgG-HRP, OD450.
In turn, B17 returned an EC50 of 2.05 nM.
On the same count and under the same terms, the figure for B18 is 2.38 nM; for B19 it is 2.81 nM; for B20 it is 5.16 nM.
The same measure, in the same setting: the figure for B21 is 3.44 nM; for B22 it is 6.26 nM; for B3 it is 1.04 nM.
On the same count and under the same terms, the figure for B23 is 1.47 nM; for B24 it is 5.74 nM.

In a further test the target is T4, human PD-L1-Fc. Description: BLI; against H-CDR2-WT (G55A).
B11 came in with a Fold increase of 11.1 fold.
Still for that read-out and setting: the figure for B12 is 11 fold; for B13 it is 11 fold.
Still for that read-out and setting: the figure for B14 is 7.6 fold; for B15 it is 6.03 fold.

Usually EC50 stands for the concentration needed to bring the measured effect to its halfway point. As a reminder, the Kd is a measure of binding affinity in units of concentration. A low value points to a tighter complex. By kon is commonly meant the second-order rate constant of association. Low values mean slow association, high ones fast association.
